Legend:
[1] = molecular target: T1, EGFRvIII-mFc (human); assay: SPR 37C, mAb-capture
T1 construct: Soluble dimeric protein

[2] = molecular target: T1, EGFRvIII-mFc; assay: SPR 37C, receptor-capture
Protocol: (§1) Measurements were conducted on a T100 BIACORE™ instrument. […] In the receptor-capture format, either EGFRvIII-mFc or EGFR-mFc, was captured on the BIACORE™ chip and the respective antibodies flowed over. Kinetic association (kₐ) and dissociation (kd) rate constants were determined by processing and fitting the data to a 1:1 binding model using Scrubber 2.0 curve fitting software. Binding dissociation equilibrium constants (KD) and dissociative half-lives (t_{1/2}) were calculated from the kinetic rate constants as: KD (M)=kd/kₐ; and t₁₁₂ (min)=ln2/(60*kd).

[3] = molecular target: T2, wild-type human EGFR on cells (human, UniProt P00533 25-1210); assay: FACS, A431 cells, PE secondary antibody
T2 construct: Stands for transfected HEK293/hEGFRwt, endogenous EGFR of A431 and of parental HEK293 cells, and human EGFR of hEGFR mice; the cell line is named under assay; also called EGFRwt; hEGFRwt
Protocol: (§2) To determine the specificity of the anti-EGFRvIII mAbs, their binding to HEK293, HEK293 cells expressing EGFRvIII (HEK293/EGFRvIII) and A431 cells, was analyzed by fluorescence activated cell sorting (FACS). HEK293/EGFRvIII cells were prepared by transfecting HEK293 cells with neomycin resistant DNA vectors constitutively expressing full-length hEGFRvIII (SEQ ID NO:147) using LIPOFECTAMINE™ 2000 transfection reagent (INVITROGEN™). At two days post-transfection, cells were placed under G418 selection for approximately two weeks. Populations positively expressing EGFRvIII were isolated via fluorescence activated cell sorting (FACS). The HEK293 cells expressing ˜3×10⁶ copies of EGFRvIII per cell were used in the experiment. […] In another set of experiment, anti-EGFRvIII antibodies were directly conjugated via their lysine residues with the fluorescent dye, ALEXA FLUOR® 488 Dye (INVITROGEN™), thereby eliminating the step using the secondary antibody. […] Controls I, II, III, IV and V are described above. MFI: Mean Fluorescence Intensity.

[4] = molecular target: T3, full-length hEGFRvIII on cells (human, UniProt P00533 298-1210); assay: FACS, HEK293/EGFRvIII cells, PE secondary antibody
T3 construct: Expressed from vectors in HEK293, U87, B16F10.9, U251 and MMT 060562 cells; also called HEK293/EGFRvIII; HEK293/hEGFRvIII
Protocol: as §2

[5] = molecular target: T4, EGFR-mmh (human, UniProt P00533 25-647, limits assumed); assay: SPR 37C, mAb-capture
T4 construct: Soluble monomeric protein; also called hEGFR-mmh

[6] = molecular target: T5, EGFRvIII-mmh (human, UniProt P00533 298-647, limits assumed); assay: SPR 37C, mAb-capture
T5 construct: Soluble monomeric protein; also called hEGFRvIII-mmh; hEGFRvIII.mmh

[7] = molecular target: T6, EGFR-mFc (human); assay: SPR 37C, mAb-capture
T6 construct: Soluble dimeric protein

[8] = molecular target: T6, EGFR-mFc; assay: SPR 37C, receptor-capture
Protocol: as §1

[9] = molecular target: T4, EGFR-mmh; assay: ELISA
Excerpt: (§3) To further characterize anti-hEGFRvIII mAbs, their binding specificity was examined by ELISA. […] Also, coated was an irrelevant peptide (control peptide) with or without biotin at its N-terminal. […] The plates were then washed and bound anti-EGFRvIII mAbs were detected with anti-human Fc antibodies conjugated with horse-radish peroxidase (HRP). […] Data analysis used a sigmoidal dose-response model within PRISM™ software.

[10] = molecular target: T5, EGFRvIII-mmh; assay: ELISA
Excerpt: as §3

[11] = molecular target: T1, EGFRvIII-mFc; assay: SPR 37C, receptor-capture; 37 C, receptor-capture format (EGFRvIII-mFc captured)
Protocol: as §1

[12] = molecular target: T3, full-length hEGFRvIII on cells; assay: FACS, HEK293/EGFRvIII cells, directly labeled antibody
Protocol: as §2

[13] = molecular target: T2, wild-type human EGFR on cells; assay: FACS, A431 cells, directly labeled antibody
Protocol: as §2

[14] = molecular target: T6, EGFR-mFc; assay: SPR 37C, receptor-capture; 37 C, receptor-capture format (EGFR-mFc captured)
Protocol: as §1

[15] = molecular target: T5, EGFRvIII-mmh; assay: ELISA; ELISA, 25 C, EGFRvIII-mmh coated on the plate
Excerpt: as §3

[16] = molecular target: T3, full-length hEGFRvIII on cells; assay: cell-based or functional assay
[17] = molecular target: T4, EGFR-mmh; assay: ELISA; ELISA, 25 C, EGFR-mmh coated on the plate
Excerpt: as §3

Binder | T½ [1] [min] | T½ [2] [min] | Kd [6] [nM] | T½ [6] [min] | koff [6] [s⁻¹] | kon [6] [M⁻¹ s⁻¹] | Kd [1] [nM] | koff [1] [s⁻¹] | kon [1] [M⁻¹ s⁻¹] | Kd [2] [nM] | koff [2] [s⁻¹] | kon [2] [M⁻¹ s⁻¹] | EC50 [10] [nM] | HEK293/EGFRvIII MFI [12] [MFI] | Ratio (EGFRvIII MFI/parental MFI) [12] | A431 MFI [13] [MFI] | Fold Above Background [13] [fold] | Kd [14] [nM] | T½ [14] [min] | koff [14] [s⁻¹] | other results
H1H1863N2(Fuc+) (antibody, human IgG1, V domains shown, the numerical identifier ties them; also called H1H863N2; H1H863N2(Fuc+)) VH: EVQLVESGGGLVQPGGSLRLSCAASGFPFSSYDMHWVRQATGKGLEWVSAIGTAGATYYPGSVKGRFTISRENAKNSLYLQMNSLRAGDTAVYYCARGDYVWGTYRPLFDYWGQGTLVTVSS VL: DIQLTQSPSFLSASVGDRVTITCWASQGINNYLAWYQQKPGKAPKLLIYAASTLQTGVPSRFSGSGSGTEFTLTISSLQPEDFATYYCQQLNSYPLTFGGGTKVEIK | 14 | 56 |  |  |  |  |  |  |  |  |  |  |  |  |  |  |  |  |  |  | 
H1H2195P (antibody, human IgG1, V domains shown, Human IgG1 Fc; also called H1H2195N) VH: QVQLVESGGGVVQPGRSRRLSCVGSGFIFSSYGMHWVRQAPGKGLEWVALIFYDGSNEYYVDSVKGRFTISRDNSKNTLYLQMNSLRAEDTAVYYCAREGYSQRYKYYFGMDVWGQGTTVTVSS VL: DIQMTQSPSSVSASVGDRVTITCRASQGISSWLAWYQQQPGKAPKLLIYAASSLQSGVPSRFSGSGSGTDFTLTISSLQPEDFATYYCQQTNSFPLTFGGGTKVEIKR | 103 | 456 | 10.7 | 17 | 0.000694 | 64800 | 1.1 | 0.000113 | 102000 | 0.106 | 2.53e-05 | 237000 | 0.0049 |  |  |  |  |  |  |  | A431 MFI [3]: 2230 MFI; Fold Above Background [3]: 1.6 fold; HEK293/EGFRvIII MFI [4]: 13500 MFI; Ratio (EGFRvIII MFI/parental MFI) [4]: 11.5; Kd [5]: 9.2 nM; T½ [5]: 22 min; koff [5]: 0.000523 s⁻¹; kon [5]: 56600 M⁻¹ s⁻¹; Kd [7]: 2.05 nM; T½ [7]: 61 min; koff [7]: 0.000189 s⁻¹; kon [7]: 92000 M⁻¹ s⁻¹; Kd [8]: 0.231 nM; T½ [8]: 222 min; koff [8]: 5.2e-05 s⁻¹; kon [8]: 225000 M⁻¹ s⁻¹; EC50 [9]: 0.0052 nM
H1H1915N (antibody, human IgG1, V domains shown, Human IgG1 Fc; also called H2M1915N (same variable domains)) VH: QVQLVESGGGVVQPGRSLRLSCAASGFTFSAYAMHWVRQAPGKGLEWVAVIWYDGSNKNYADSVKGRFTVSRDNSKNTLYLEMNSLRAEDTAVYYCARDLMVGVTNYWGQGTLVTVST VL: DVVMTQSPLSLPVALGQPASISCRSSQSLVYTDGNTYLNWFHQRPGQSPRRLIYKVSNRDSGVPDRFTGSGSGTDFTLKISRVEAEDVGVFYCMQGSHWPPYTFGQGTKLEIK |  |  |  |  |  |  |  |  |  |  |  |  |  | 73400 | 21.2 | 8440 | 1.2 | 184 | 1.4 | 0.00801 | Kd [11]: 3.2 nM; T½ [11]: 35 min; koff [11]: 0.000328 s⁻¹; kon [11]: 100000 M⁻¹ s⁻¹; kon [14]: 43500 M⁻¹ s⁻¹; EC50 [15]: 0.167 nM
H1H1912N (antibody, human IgG1, V domains shown, Human IgG1 Fc; also called H2M1912N (same variable domains)) VH: EVQLVESGGGLVQPGRSLRLSCAASGFTFDDYAMHWVRQVPGKGLEWVSGISWNSGSIGYADSVKGRFTISRDNAKNSLYLQMNSLRAEDTALYYCAKDIHDYGKDYYYYYGMDVWGQGTTVTVSS VL: EIALTQSPGTLSLSPGERATLSCRASQSVSSTYLAWYQQKPGQAPRLLIYGASSRATGIPDRFSGSGSGTDFTLTISRLEPEDFAVYYCQQYDSSPITFGQGTRLEIK | 12 | 22 | 899 | 0.7 | 0.0164 | 18300 | 47.7 | 0.000971 | 20400 | 5.4 | 0.000537 | 99000 | 0.0118 | 122000 | 32.7 | 14300 | 2.1 | 22.9 | 13 | 0.000914 | Fluorescent Intensity of vesicles 4° C., Mean [16]: 4910; Fluorescent Intensity of vesicles 37° C., Mean [16]: 370000; EC50 [17]: 0.0405 nM; kon [14]: 39900 M⁻¹ s⁻¹

From patent publication US20160304615A1 (Regeneron, published 2016)
